Earlier results, collected in article PMC5012591.

Target: flagellar motor switch protein FliM (Escherichia coli) (UniProt P06974)
Sequence of UniProt P06974 (P06974 whole entry): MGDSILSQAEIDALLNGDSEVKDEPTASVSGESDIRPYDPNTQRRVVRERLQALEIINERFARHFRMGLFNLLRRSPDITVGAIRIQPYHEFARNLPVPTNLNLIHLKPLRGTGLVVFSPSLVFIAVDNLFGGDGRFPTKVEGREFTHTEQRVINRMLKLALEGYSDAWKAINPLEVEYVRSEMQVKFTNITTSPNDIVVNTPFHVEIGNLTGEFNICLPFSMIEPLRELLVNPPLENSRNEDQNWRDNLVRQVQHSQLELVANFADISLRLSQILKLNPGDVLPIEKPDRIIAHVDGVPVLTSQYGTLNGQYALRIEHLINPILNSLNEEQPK

CheY-P (from UniProt P0AE67)
Kd: 3.06 µM
